B1: Guanyl-specific ribonuclease T1, P00651 (parent)
chain: MMYSKLLTLTTLLLPTALALPSLVERACDYTCGSNCYSSSDVSTAQAAGYQLHEDGETVGSNSYPHKYNNYEGFDFSVSSPYYEWPILSSGDVYSGGSPGADRVVFNENNQLAGVITHTGASGNNFVECT

Variants of: B1
Conditions: Aspergillus oryzae (strain ATCC 42149 / RIB 40), pH 6, Thermal, DSC, sodium acetate calcium acetate 20 mM 2 mM, Mops 50 mM, reversible: yes, structure 1RN1, whole UniProt chain shown; for ddG of mutation (higher = less stable) / heat capacity change of unfolding / unfolding free energy: 25 °C

Y68W W85Y
ddG of mutation (higher = less stable): 1.03 kcal/mol
heat capacity change of unfolding: 0.98 kcal/mol/K
unfolding free energy: 6.76 kcal/mol
Tm: 53.7 °C
change of melting temperature, mutant - wild type (higher = more stable): -3.5 °C
unfolding enthalpy (calorimetric): 91.8 kcal/mol

H66T W85Y
ddG of mutation (higher = less stable): 0.93 kcal/mol
heat capacity change of unfolding: 0.98 kcal/mol/K
unfolding free energy: 6.88 kcal/mol
Tm: 53.9 °C
change of melting temperature, mutant - wild type (higher = more stable): -3.3 °C
unfolding enthalpy (calorimetric): 92.5 kcal/mol

H66T
ddG of mutation (higher = less stable): 0.26 kcal/mol
heat capacity change of unfolding: 0.98 kcal/mol/K
Tm: 56.7 °C
change of melting temperature, mutant - wild type (higher = more stable): -0.5 °C
unfolding enthalpy (calorimetric): 100 kcal/mol

Y71W
heat capacity change of unfolding: 0.98 kcal/mol/K
unfolding free energy: 8.56 kcal/mol
Tm: 55.9 °C
change of melting temperature, mutant - wild type (higher = more stable): -1.3 °C
unfolding enthalpy (calorimetric): 107 kcal/mol

Y68W
ddG of mutation (higher = less stable): 0.14 kcal/mol
heat capacity change of unfolding: 0.98 kcal/mol/K
unfolding free energy: 7.67 kcal/mol
Tm: 56.6 °C
change of melting temperature, mutant - wild type (higher = more stable): -0.6 °C
unfolding enthalpy (calorimetric): 96.1 kcal/mol

Y50W
ddG of mutation (higher = less stable): -1.24 kcal/mol
heat capacity change of unfolding: 0.98 kcal/mol/K
unfolding free energy: 9.03 kcal/mol
Tm: 58.8 °C
change of melting temperature, mutant - wild type (higher = more stable): 1.6 °C
unfolding enthalpy (calorimetric): 106 kcal/mol

W85Y H118A
ddG of mutation (higher = less stable): 1.53 kcal/mol
heat capacity change of unfolding: 0.98 kcal/mol/K
unfolding free energy: 6.26 kcal/mol
Tm: 53.2 °C
change of melting temperature, mutant - wild type (higher = more stable): -4 °C
unfolding enthalpy (calorimetric): 87 kcal/mol

Y50W W85Y
ddG of mutation (higher = less stable): -0.29 kcal/mol
heat capacity change of unfolding: 0.98 kcal/mol/K
unfolding free energy: 8.1 kcal/mol
Tm: 56.6 °C
change of melting temperature, mutant - wild type (higher = more stable): -0.6 °C
unfolding enthalpy (calorimetric): 101 kcal/mol

Y71W W85Y
ddG of mutation (higher = less stable): 0.91 kcal/mol
heat capacity change of unfolding: 0.98 kcal/mol/K
unfolding free energy: 6.91 kcal/mol
Tm: 52.8 °C
change of melting temperature, mutant - wild type (higher = more stable): -4.4 °C
unfolding enthalpy (calorimetric): 95.1 kcal/mol

W85Y
ddG of mutation (higher = less stable): 0.93 kcal/mol
heat capacity change of unfolding: 0.98 kcal/mol/K
unfolding free energy: 6.88 kcal/mol
Tm: 54.3 °C
change of melting temperature, mutant - wild type (higher = more stable): -2.9 °C
unfolding enthalpy (calorimetric): 91.8 kcal/mol

H118A
ddG of mutation (higher = less stable): 0.62 kcal/mol
heat capacity change of unfolding: 0.98 kcal/mol/K
unfolding free energy: 7.19 kcal/mol

Reference: FireProtDB (doi:10.1111/j.1432-1033.1994.tb18652.x)
